Assay results reported in paper PMC9088182 (Cell reports, 2022).

Biological target: the molecule itself
Assay: cryo-EM structure

B1: TRPV5 Thr709Asp phosphomimetic mutant (rabbit) (natural protein)
chain: MGACPPKAKGPWAQLQKLLISWPVGEQDWEQYRDRVNMLQQERIRDSPLLQAAKENDLRLLKILLLNQSCDFQQRGAVGETALHVAALYDNLEAATLLMEAAPELAKEPALCEPFVGQTALHIAVMNQNLNLVRALLARGASVSARATGAAFRRSPHNLIYYGEHPLSFAACVGSEEIVRLLIEHGADIRAQDSLGNTVLHILILQPNKTFACQMYNLLLSYDEHSDHLQSLELVPNHQGLTPFKLAGVEGNTVMFQHLMQKRKHVQWTCGPLTSTLYDLTEIDSWGEELSFLELVVSSKKREARQILEQTPVKELVSFKWKKYGRPYFCVLASLYILYMICFTTCCIYRPLKLRDDNRTDPRDITILQQKLLQEAYVTHQDNIRLVGELVTVTGAVIILLLEIPDIFRVGASRYFGQTILGGPFHVIIITYASLVLLTMVMRLTNMNGEVVPLSFALVLGWCSVMYFARGFQMLGPFTIMIQKMIFGDLMRFCWLMAVVILGFASAFHITFQTEDPNNLGEFSDYPTALFSTFELFLTIIDGPANYSVDLPFMYCITYAAFAIIATLLMLNLFIAMMGDTHWRVAQERDELWRAQVVATTVMLERKMPRFLWPRSGICGYEYGLGDRWFLRVENHHDQNPLRVLRYVEAFKCSDKEDGQEQLSEKRPSTVESGMLSRASVAFQTPSLSRTTSQSSNSHRGWEILRRNDLGHLNLGLDLGEGDGEEVYHF
Does B1 bind?
Result: binds
